Results reported in US20250027068.

Molecular target: pooled human IgG

Row | Protein | Enzyme Activity Endpoint Assay (purified): Fab'2 [ng/µL] | Enzyme Activity Endpoint Assay (purified): Fc [ng/µL] | Enzyme Activity Endpoint Assay (purified): IgG [ng/µL] | Enzyme Activity Endpoint Assay (purified): scIgG [ng/µL] | Enzyme Activity Endpoint Assay: Fab′2 [ng/µL] | Enzyme Activity Endpoint Assay: Fc [ng/µL] | Enzyme Activity Endpoint Assay: IgG [ng/µL] | Enzyme Activity Endpoint Assay: scIgG [ng/µL]
1 | PRT-282 (protein) MVTSVWTKGVTPPAKFTQGEDVFHAPYVANQGWYDITKTFNGKDDLLCGAATAGNMLHWWFDQNKEKIEAYLKKHPDKQKIMFGDQELLDVRKVINTKGDQTNSELFNYFRDKAFPNLSARRIGVMPDLVLDMFINGYYLNVYKTQTTDVNRTYQEKDRRGGIFDAVFTRGDQSKLLTSRHDFKEKNLKEISDLIKKELTEGKALGLSHTYANVRLNHVINLWGADFDSNGNLKAIYVTDSDSNASIGMKKYFVGVNSSGKVAISAKEIKEDNIGAQVLGLFTLSTGQDSWNQTN | 69 | 150 | 34 | 413 | – | – | – | –
2 | PRT-322 (protein) MTITSVWTKGVTPPTPEDFRENNEDVLHAPYVANQGWYDITKTFDGKDNLLCGAATAGNMLHWWFDQNKEEIERYLKKHPEKQKIIFNNQELFDVKAAIDTKDSQTNSKLFDYFRDKAFPNLSARQLGVMPDLVLDMFINGYYLNLGKTQSTDVNRPYQDKDKRGGIFDAVFTRGDQTTLLTARHDLKNKGLNEISDLIKQELTEGKALALSHTYANVRINHVINLWGADFDAEGNLIAIYVTDSDANASIGMKKYFVGRNANGKVAISAKKIEGDNIGAQVLGLFTLSTGQDQWQKLS | 506 | 381 | 387 | 0 | – | – | – | –
3 | PRT-330 (protein) MTITSVWTKGVTPPTPEDFRENNEDVLHAPYVANQGWYDITKTFDGKDNLLCGAATAGNMLHWWFDQNKEEIERYLKKHPEKQKIIFGNQELFDVKAAIDTKDSQTNSKLFDYFRDKAFPGLSARQLGVFPDLVLDMFINGYYLNLGKTQSTDVNRPYQDKDKRGGIFDAVFTRGVQTTLLTARHDLKNKGLNEISDLIKQELTEGKALALSHTYANVRINHVINLWGADFDAEGNLIAIYVTDSDANASIGMKKYFVGRNANGKVAISAKKIEGDNIGAQVLGLFTLSTGQDQWQKLS | 493 | 369 | 352 | 0 | – | – | – | –
4 | PRT-314 (protein) MQITSVWTKGVTPLTPEQFRENNEDVIHAPYLAHQGWYDITKAFDGKDNLLCGAATAGNMLHWWFDQNKTEIEAYLSKHPEKQKIIFGNQELFDLKAAIDTKDSQTNSQLFDYFRDKAFPNLSARQLGVMPDLVLDMFINGYYLNVGKTQSTDVNRPYQDKDKRGGIFDAVFTRGDQTTLLTARHDLKNKGLNDISTIIKQELTEGRALALSHTYANVSISHVINLWGADFNAEGELEAIYVTDSDANPSIGMKKYFVGRNAHGHVAISAKKIEGENIGAQVLGLFTLSSGKDQWQKLS | 599 | 286 | 101 | 174 | – | – | – | –
5 | PRT-30 (protein) MANQEIRYSEVTPYHVTSVWTKGVTPPANFTQGEDVFHAPYVANQGWYDITKTFNGKDDLLCGAATAGNMLHWWFDQNKDQIKRYLEEHPEKQKINFNGEQMFDVKEAIDTKNHQLDSKLFEYFKEKAFPYLSTKHLGVFPDHVLDMFINGYRLSLTNHGPTPVKEGSKDPRGGIFDAVFTRGDQSKLLTSRHDFKEKTLKEISDLIKKELTEGKALGLSHTYANVRINHVINLWGADFDSEGNLKAIYVTDSDSNASIGMKKYFVGVNSAGKVAISAKEIKEDNIGAQVLGLFTLSTGQDSWNQTN | – | – | – | – | 3 | 73 | 21 | 65
6 | PRT-274 (protein) MVTSVWTKGVTPPTDFIYGEDVLHAPYKAGQGWYDITKTFNGKDNLLCGAATAGNMLHWWFDQNKEQIENYLKKHPEKQKIIFNNQELFDLKAAIDTKDSQLDSKLFDYFKEKAFPNLSTKHLGVFPDHVIDMFINGYRLSLLNHGPTPVKRGSKDKRGGIFDAVFTRGVQSKLLTNRHDLKNKTLKEISDLIKQELTEGKALGISHTYANVRINHVINLWGADFDAEGNLEAIYVTDSDTNPSIGMKKYFVGVNSSGKVAISAKEIEEDNIGAQVLGLFTLSTGQDIWNQTN | 1040 | 425 | 0 | 0 | – | – | – | –
7 | PRT-25 (protein) MANQEIRYSEVTPYHVTSVWTKGVTPPANFTQGEDVFHAPYVANQGWYDITKTFNGKDDLLCGAATAGNMLHWWFDQNKDQIERYLKEHPEKQKINFNGEQMFDVKEAIDTKDSQTDSKLFEYFKEKAFPYLSTKHLGVFPDHVIDMFINGYRLSLTNHGPTPVKEGSKDPRGGIFDAVFTRGDQSKLLTSRHDFKEKNLKEISDLIKQELTEGKALGLSHTYANVRINHVINLWGADFDSNGNLEAIYVTDSDSNASIGMKKYFVGVNSAGKVAISAKEIEEDNIGAQVLGLFTLSTGQDIWNQTN | – | – | – | – | 56 | 123 | 20 | 0
8 | PRT-28 (protein) MANQEIRYSEVTPYHVTSVWTKGVTPPANFTQGEDVFHAPYVANQGWYDITKTFNGKDDLLCGAATAGNMLHWWFDQNKDQIKRYLEEHPEKQKINFNGEQMFDVKEAIDTKDHQLDSKLFEYFKEKAFPYLSTKHLGVFPDHVLDMFINGYRLSLTNHGPTPVKEGSKDPRGGIFDAVFTRGDQSKLLTSRHDFKEKTLKEISDLIKKELTEGKALGLSHTYANVRINHVINLWGADFDSNGNLKAIYVTDSDSNASIGMKKYFVGVNSAGKVAISAKEIKEDNIGAQVLGLFTLSTGQDSWNQTN | – | – | – | – | 16 | 89 | 14 | 44
9 | PRT-27 (protein) MANQEIRYSEVTPYHVTSVWTKGVTPPANFTQGEDVFHAPYVANQGWYDITKTFNGKDDLLCGAATAGNMLHWWFDQNKDQIKRYLEEHPEKQKINFNGEQMFDVKEAIDTKNHQTDSKLFEYFKEKAFPYLSTKHLGVFPDHVIDMFINGYRLSLTNHGPTPVKEGSKDPRGGIFDAVFTRGDQSKLLTSRHDFKEKNLKEISDLIKKELTEGKALGLSHTYANVRINHVINLWGADFDSNGNLEAIYVTDSDSNASIGMKKYFVGVNSAGKVAISAKEIKEDNIGAQVLGLFTLSTGQDSWNQTN | – | – | – | – | 44 | 112 | 14 | 13
10 | PRT-26 (protein) MANQEIRYSEVTPYHVTSVWTKGVTPPANFTQGEDVFHAPYVANQGWYDITKTFNGKDDLLCGAATAGNMLHWWFDQNKDQIERYLKEHPEKQKINFNGEQMFDVKEAIDTKDSQTDSKLFEYFKEKAFPYLSTKHLGVFPDHVLDMFINGYRLSLTNHGPTPVKEGSKDPRGGIFDAVFTRGDQSKLLTSRHDFKEKTLKEISDLIKQELTEGKALGLSHTYANVRINHVINLWGADFDSEGNLKAIYVTDSDSNASIGMKKYFVGVNSAGKVAISAKEIKEDNIGAQVLGLFTLSTGQDIWNQTN | – | – | – | – | 40 | 101 | 11 | 14
11 | PRT-29 (protein) MANQEIRYSEVTPYHVTSVWTKGVTPPANFTQGEDVFHAPYVANQGWYDITKTFNGKDDLLCGAATAGNMLHWWFDQNKDQIKRYLEEHPEKQKINFNGEQMFDVKEAIDTKNHQLDSKLFEYFKEKAFPYLSTKHLGVFPDHVIDMFINGYRLSLTNHGPTPVKEGSKDPRGGIFDAVFTRGDQSKLLTSRHDFKEKNLKEISDLIKQELTEGKALGLSHTYANVRINHVINLWGADFDSNGNLEAIYVTDSDSNASIGMKKYFVGVNSAGKVAISAKEIEEDNIGAQVLGLFTLSTGQDSWNQTN | – | – | – | – | 19 | 95 | 27 | 43
12 | PRT-290 (protein) MVTSVWTKGVTPPADFTQGEDVFHAPYVANQGWYDITKTFNGKDDLLCGAATAGNMLHWWFDQNKEYIEAYLKKHPEKQKIMFGDQELLDVRKAINTKGSQKNSELFNYFRDKAFPNLSARRLGVMPDLVLDMFINGYYLNVTKTQTTDVNRTYQEKDKRGGIFDAVFTRGDQSKLLTSRHDFKEKGLKEISDLIKQELTEGKALGLSHTYANVRIGHVINLWGADFDSDGNLKAIYVTDSDSNASIGMKKYFVGVNSSGKVAISAKEIKEDNIGAQVLGLFTLSTGQDIWNQTN | 191 | 151 | 179 | 0 | – | – | – | –
13 | PRT-306 (protein) MVTSVWTKGVTPPTDFIKGEDVFHAPYDAGQGWYDITKEFNGKDDLLCGAATAGNMLHWWFDQNKEYIEAYLKKHPEKQKIMFGDQELLDVRKAINTKGSQKNSELFNYFRDKAFPNLSARRLGVMPDLVLDMFINGYYLNVTKTQTTDVNRTYQEKDKRGGIFDAVFTRGDQSKLLTSRHDFKEKGLKEISDLIKQELTEGKALGLSHTYANVRIGHVINLWGADFDSDGNLKAIYVTDSDSNASIGMKKYGVGVNSAGKVAISAKEIKEDNIGAQVLGLFTLSTGQDIWNQTN | 467 | 336 | 341 | 0 | – | – | – | –
14 | PRT-298 (protein) MVTSVWTKGVTPPTDFIKGEDVFHAPYKAGQGWYDITKTFNGKDDLLCGAATAGNMLHWWFDQNKEYIEAYLKKHPEKQKIMFGDQELLDVRKAINTKGSQKNSELFNYFRDKAFPNLSARRLGVMPDLVLDMFINGYYLNVTKTQTTDVNRTYQEKDKRGGIFDAVFTRGDQSKLLTSRHDFKEKGLKEISDLIKQELTEGKALGLSHTYANVGINHVINLWGADFDSDGNLKAIYVTDSDSNASIGMKKYFVGVNSSGKVAISAKEIKEDNIGAQVLGLFTLSTGQDIWNQTN | 494 | 240 | 147 | 35 | – | – | – | –
